Assay results published in patent US7125541.

Tests used:
human endoglin (human) [1] = target: human endoglin (human) (UniProt P17813); assay: competitive binding inhibition on HUVEC by FACS; unlabelled TEC-4 against competitor biotinylated TEC-11, ratio 1:1
human endoglin (human) [2] = target: human endoglin (human) (UniProt P17813); assay: competitive binding inhibition on HUVEC by FACS; unlabelled TEC-4 against competitor biotinylated TEC-11, ratio 1:100
human endoglin (human) [3] = target: human endoglin (human) (UniProt P17813); assay: competitive binding inhibition on HUVEC by FACS; unlabelled TEC-11 against competitor biotinylated TEC-4, ratio 1:1

Substance: TEC-4 (tumor endothelial cell antibody 4)
- percent blocking of biotinylated antibody (human endoglin (human) [1]): 1%
- percent blocking of biotinylated antibody (human endoglin (human) [2]): 20%

Substance: TEC-11 (tumor endothelial cell antibody 11)
- percent blocking of biotinylated antibody (human endoglin (human) [3]): 51%
